Source: publication PMC12362812

Molecular target: NUP93 (nucleoporin 93) (UniProt Q8N1F7)
Assay: co-immunoprecipitation, Western blot
Settings: reference: wild-type β-catenin; sites S191

binding against the reference: weaker
Substance: β‐catenin (from UniProt P35222) β-catenin S191 mutant (S191A)
